# Reference: patent US20090291088A1, “THERAPEUTIC COMBINATIONS OF ANTI-IGF-1R ANTIBODIES AND OTHER COMPOUNDS” (Biogen Idec MA Inc., priority 2008, published 2009)
# Columns and labels:
# [1] = target: human IGF-1R(1-902)-His10 (human) (UniProt P08069); assay: ELISA, plate coated with rh-IGF-1R, bound antibody detected with anti-mouse IgG Fc-HRP
# [2] = target: human IGF-1R(1-903)-Fc (human) (UniProt P08069); assay: competition ELISA: biotinylated hIGF-1R-Fc on streptavidin plate, 320 nM human IGF-1 His, detection with anti-His-HRP; blocked ligand human IGF-1 His
# [3] = target: human IGF-1R(1-903)-Fc (human) (UniProt P08069); assay: ELISA on hIGF-1R-Fc, competitor biotinylated M14-G11
# [4] = target: human IGF-1R(1-903)-Fc (human) (UniProt P08069); assay: ELISA on hIGF-1R-Fc, competitor Zenon-labelled αIR3
substance,measurement,setting,value
αIR3 (antibody),EC50 (read off the curve),[1],0.2 nM
same,IC50 (read off the curve),[2],5 nM
same,percent competition (relative to self-competition),[3],90 to 100%
same,percent competition (relative to self-competition),[4],90 to 100%
